In patent US20110052525A1, “Breaking Immunological Tolerance with a Genetically Encoded Unnatural Amino Acid” (THE SCRIPPS RESEARCH INSTITUTE, priority 2008, published 2011):

Assays:
[1] = TR-FRET retinol binding assay of mRBP4 proteins; details: retinol binding affinity, Cy5-labeled retinol
Experimental: The binding affinities of mRBP4 proteins were determined by a TR-FRET retinol binding assay.
WT and pNO2Phe mRBP4 mutant proteins were labeled with biotin using the Sulfo-NHS-Biotin kit (Pierce, Rockford, Ill.) according to manufacturer instructions. For determination of retinol binding activity, 10 nM biotin-labeled RBP4 was mixed with 1 nM Streptavidin-Europium chelate (LANCE® Eu-W8044 Streptavidin, Perkin Elmer, Foster City, Calif.). Increasing concentrations of Cy5-labeled retinol were added to the reaction and retinol binding was assessed by homogeneous time-resolved fluorescence resonance energy transfer (TR-FRET).

[2] = molecular target: T1, mRBP4 (Mus musculus, UniProt Q00724); assay: Serum IgG titers by ELISA after RIMMS immunization of mice with mRBP4 variants; format: in vivo
T1 construct: The cDNA encoding murine RBP4 (aa 19-201); made in house; host or cells: E. coli BL21(DE3)
Experimental: 30 μl of 0.5 μg/ml protein was used to coat the wells of Maxisorp 384-well plates (Nunc, Rochester, N.Y.) overnight at 4° C. After washing with PBS+0.05% Tween 20 (PBST), the coated plates were blocked with 80 μl of 1% BSA in PBS, and washed again with PBST. The plates were sequentially incubated with 20 μl of primary antibody or serum diluted in 1% BSA in PBS, 20 μl of HRP-conjugated goat anti-mouse IgG or anti-mouse IgM (Jackson ImmunoResearch Laboratories, West Grove, Pa.), and 20 μl of TMB substrate (KPL, Gaithersburg, Md.), and read at an absorbance of 650 nm. Between incubations, the plates were washed at least six times with PBST.
Before measurement, serum samples were diluted 1:1,000 with 1% BSA in PBS buffer.

For “WT mRBP4: wild-type murine retinol binding protein 4”, the Kd [1] was 0.171 µM, the “serum IgG titers against WT mRBP4” value ([2]; Bcl2 mice, RIMMS, ELISA (FIG. 19)) was “insignificant serum IgG titers” and the “serum IgG titers against WT mRBP4” value ([2]; C57BL/6 mice, ELISA (FIG. 26)) was “insignificant serum IgG titers”.
